Experimental findings from doi:10.1101/2022.09.06.506802 (bioRxiv, 2022) are described below.

Test [1] has as its target Human Talin 1 R1R2-17b (residues 482-786 + additional 17 residues) (human) (UniProt Q9Y490). Description: SEC.
The target of test [2] is Human Talin 1 R1R2-WT (residues 482-786) (human, UniProt Q9Y490 482-786). Description: NMR titration.

Several values for one entry are separate records, joined by “and”; a condition that tells them apart may be missing. Equal entries are not always repeated.

Take “Vinculin domain 1 (VD1) (from UniProt P18206 1-258) (domain or fragment)”: in test [1], the stoichiometry N (vinculin per talin) is 2 and 3.
On to SEDIDQMFSTLLGEMDLLTQSLGVDTC [RIAM peptide (residues 4-30)], for which, in test [2], the binding result is listed as “binds”.
